According to patent US20180250358A1, “GHRH AGONISTS FOR THE TREATMENT OF ISCHEMIC DISORDERS” (published 2018):
Non-standard residues stand in square brackets, D forms with d. No end group written: not given here. *: point of attachment. Desaminotyrosyl = O=C(CCc1ccc(O)cc1)*; hArg = N=C(N)NCCCC[C@H](N)C(=O)O; Agmatine = N=C(N)NCCCCN*; Nle = CCCC[C@H](N)C(=O)O; Orn = NCCC[C@H](N)C(=O)O; Abu = CC[C@H](N)C(=O)O; Aoc = NCCCCCCCC(=O)O; GABA = NCCCC(=O)O

Tests used:
[1] = target: T1, GHRH receptor of human pituitary membranes (human, UniProt Q02643); assay: competition vs 125I-JV-1-42, human pituitary membranes
T1 sequence: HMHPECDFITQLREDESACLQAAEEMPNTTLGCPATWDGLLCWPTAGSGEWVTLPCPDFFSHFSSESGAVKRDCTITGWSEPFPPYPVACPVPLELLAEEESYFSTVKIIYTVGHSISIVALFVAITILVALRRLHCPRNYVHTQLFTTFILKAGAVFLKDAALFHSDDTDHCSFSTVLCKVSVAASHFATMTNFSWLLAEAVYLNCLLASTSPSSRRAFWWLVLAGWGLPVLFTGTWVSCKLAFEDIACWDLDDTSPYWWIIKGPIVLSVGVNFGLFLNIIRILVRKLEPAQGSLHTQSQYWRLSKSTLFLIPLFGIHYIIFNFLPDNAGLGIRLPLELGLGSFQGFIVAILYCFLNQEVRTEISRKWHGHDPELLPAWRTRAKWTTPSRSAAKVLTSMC

[2] = target: T1, GHRH receptor of human pituitary …; assay: as above; remark: listed apart in the source
Description: The final binding affinities were expressed as IC₅₀ values and were calculated by using the LIGAND PC computerized curve-fitting program of Munson and Rodbard as modified by McPherson.

[3] = target: T1, GHRH receptor of human pituitary …; assay: competition vs 125I-[His1,Nle27]hGHRH(1-32)NH2, human pituitary membranes
Description: Normal human pituitary was purchased from the National Hormone and Peptide Program (UCLA Medical Center, Torrance, Calif.).

[4] = target: T1, GHRH receptor of human pituitary …; assay: as above; remark: listed apart in the source
Description: Normal human pituitaries were purchased from the National Hormone and Peptide Program (A.F. Parlow, Los Angeles, County Harbor-UCLA Medical Center, Torrance, Calif.).

Row | Binder | IC50 [1] [pM] | relative affinity (binding potency) vs JI-38 [1] [vs JI-38=1] | IC50 [2] [pM] | relative affinity (binding potency) vs GHRH [2] | relative affinity (binding potency) vs JI-38 [2] [vs JI-38=1] | IC50 [3] [pM] | relative affinity (binding potency) compared to JI-38 [3] [vs JI-38=1] | relative affinity (binding potency) compared to hGHRH(1-29) [3] | IC50 [4] [pM] | relative affinity (binding potency) vs GHRH [4] | relative affinity (binding potency) vs JI-38 [4] [vs JI-38=1]
1 | [Desaminotyrosyl][dA]DAIFTQSYR[Orn]VL[Abu]QLSAR[Orn]LLQDI[Nle]D[Agmatine] (SMILES CCCC[C@H](NC(=O)[C@@H](NC(=O)[C@H](CC(=O)O)NC(=O)[C@H](CCC(N)=O)NC(=O)[C@H](CC(C)C)NC(=O)[C@H](CC(C)C)NC(=O)[C@H](CCCN)NC(=O)[C@H](CCCNC(=N)N)NC(=O)[C@H](C)NC(=O)[C@H](CO)NC(=O)[C@H](CC(C)C)NC(=O)[C@H](CCC(N)=O)NC(=O)[C@H](CC)NC(=O)[C@H](CC(C)C)NC(=O)[C@@H](NC(=O)[C@H](CCCN)NC(=O)[C@H](CCCNC(=N)N)NC(=O)[C@H](Cc1ccc(O)cc1)NC(=O)[C@H](CO)NC(=O)[C@H](CCC(N)=O)NC(=O)[C@@H](NC(=O)[C@H](Cc1ccccc1)NC(=O)[C@@H](NC(=O)[C@H](C)NC(=O)[C@H](CC(=O)O)NC(=O)[C@@H](C)NC(=O)CCc1ccc(O)cc1)[C@@H](C)CC)[C@@H](C)O)C(C)C)[C@@H](C)CC)C(=O)N[C@@H](CC(=O)O)C(=O)NCCCCNC(=N)N) [P-20350 [Dat^1, D-Ala^2, Gln^8, Orn^12, Abu^15, Orn^21, Nle^27, Asp^28, Agm^29]hGHRH(1-29)NH2] | 520 | 8.37 | 40 | 102 vs GHRH(1-29)=1 | 42.7 | – | – | – | – | – | –
2 | YADAIFTNSYRKVLGQLSARKLLQDIMSRQ (Dat^1; D-Ala^2; Fpa5^6; Orn^12; Abu^15; Orn^21; Nle^27; Gab^30 (in place of Gln^30); C-terminal -NH2) [P-25502 [Dat^1, D-Ala^2, Fpa5^6, Orn^12, Abu^15, Orn^21, Nle^27, Gab^30]hGHRH(1-30)NH2] | 330 | 13.2 | 70 | 58 vs GHRH(1-29)=1 | 24.4 | 2160 | 1.27 | 3.54 vs hGHRH(1-29)NH2=1 | – | – | –
3 | YADAIFTNSYRKVLGQLSARKLLQDIMSRQ (Dat^1; D-Abu^2; Orn^12; Abu^15; Orn^21; Nle^27; Gab^30 (in place of Gln^30); C-terminal -NH2) [P-25504 [Dat^1, D-Abu^2, Orn^12, Abu^15, Orn^21, Nle^27, Gab^30]hGHRH(1-30)NH2] | 1440 | 3.02 | – | – | – | 2850 | 0.96 | 2.68 vs hGHRH(1-29)NH2=1 | – | – | –
4 | [Desaminotyrosyl][dA]DAIFTNSYR[Orn]VL[Abu]QLSAR[Orn]LLQDI[Nle]SRQ-{GABA-NH2} (SMILES CCCC[C@H](NC(=O)[C@@H](NC(=O)[C@H](CC(=O)O)NC(=O)[C@H](CCC(N)=O)NC(=O)[C@H](CC(C)C)NC(=O)[C@H](CC(C)C)NC(=O)[C@H](CCCN)NC(=O)[C@H](CCCNC(=N)N)NC(=O)[C@H](C)NC(=O)[C@H](CO)NC(=O)[C@H](CC(C)C)NC(=O)[C@H](CCC(N)=O)NC(=O)[C@H](CC)NC(=O)[C@H](CC(C)C)NC(=O)[C@@H](NC(=O)[C@H](CCCN)NC(=O)[C@H](CCCNC(=N)N)NC(=O)[C@H](Cc1ccc(O)cc1)NC(=O)[C@H](CO)NC(=O)[C@H](CC(N)=O)NC(=O)[C@@H](NC(=O)[C@H](Cc1ccccc1)NC(=O)[C@@H](NC(=O)[C@H](C)NC(=O)[C@H](CC(=O)O)NC(=O)[C@@H](C)NC(=O)CCc1ccc(O)cc1)[C@@H](C)CC)[C@@H](C)O)C(C)C)[C@@H](C)CC)C(=O)N[C@@H](CO)C(=O)N[C@@H](CCCNC(=N)N)C(=O)N[C@@H](CCC(N)=O)C(=O)NCCCC(N)=O) [P-29702 [Dat^1, D-Ala^2, Orn^12, Abu^15, Orn^21, Nle^27, Gln-Gab^30]hGHRH(1-30)NH2] | 860 | 5.06 | 50 | 81.2 vs GHRH(1-29)=1 | 34.2 | 3300 | 0.83 | 2.31 vs hGHRH(1-29)NH2=1 | – | – | –
5 | YADAIFTNSYRKVLGQLSARKLLQDIMSR-NH2 (ligand) [hGHRH(1-29)NH2] | – | – | 4060 | – | – | – | – | – | 5920 | – | –
6 | [Desaminotyrosyl][dA]DAIFTNSYR[Orn]VL[Abu]QLSAR[Orn]LLQDI[Nle]DR[hArg]-NH2 (SMILES CCCC[C@H](NC(=O)[C@@H](NC(=O)[C@H](CC(=O)O)NC(=O)[C@H](CCC(N)=O)NC(=O)[C@H](CC(C)C)NC(=O)[C@H](CC(C)C)NC(=O)[C@H](CCCN)NC(=O)[C@H](CCCNC(=N)N)NC(=O)[C@H](C)NC(=O)[C@H](CO)NC(=O)[C@H](CC(C)C)NC(=O)[C@H](CCC(N)=O)NC(=O)[C@H](CC)NC(=O)[C@H](CC(C)C)NC(=O)[C@@H](NC(=O)[C@H](CCCN)NC(=O)[C@H](CCCNC(=N)N)NC(=O)[C@H](Cc1ccc(O)cc1)NC(=O)[C@H](CO)NC(=O)[C@H](CC(N)=O)NC(=O)[C@@H](NC(=O)[C@H](Cc1ccccc1)NC(=O)[C@@H](NC(=O)[C@H](C)NC(=O)[C@H](CC(=O)O)NC(=O)[C@@H](C)NC(=O)CCc1ccc(O)cc1)[C@@H](C)CC)[C@@H](C)O)C(C)C)[C@@H](C)CC)C(=O)N[C@@H](CC(=O)O)C(=O)N[C@@H](CCCNC(=N)N)C(=O)N[C@@H](CCCCNC(=N)N)C(N)=O) [P-23252 [Dat^1-D-Ala^2, Orn^12, Abu^15, Orn^21, Nle^27, Asp^28, Har^30]hGHRH(1-30)NH2] | – | – | – | – | – | – | – | – | 140 | 42.3 vs GHRH(1-29)=1 | 13.9
7 | [Desaminotyrosyl][dA]DAIFTTSYR[Orn]VL[Abu]QLSAR[Orn]LLQDI[Nle]DR[hArg]-NH2 (SMILES CCCC[C@H](NC(=O)[C@@H](NC(=O)[C@H](CC(=O)O)NC(=O)[C@H](CCC(N)=O)NC(=O)[C@H](CC(C)C)NC(=O)[C@H](CC(C)C)NC(=O)[C@H](CCCN)NC(=O)[C@H](CCCNC(=N)N)NC(=O)[C@H](C)NC(=O)[C@H](CO)NC(=O)[C@H](CC(C)C)NC(=O)[C@H](CCC(N)=O)NC(=O)[C@H](CC)NC(=O)[C@H](CC(C)C)NC(=O)[C@@H](NC(=O)[C@H](CCCN)NC(=O)[C@H](CCCNC(=N)N)NC(=O)[C@H](Cc1ccc(O)cc1)NC(=O)[C@H](CO)NC(=O)[C@@H](NC(=O)[C@@H](NC(=O)[C@H](Cc1ccccc1)NC(=O)[C@@H](NC(=O)[C@H](C)NC(=O)[C@H](CC(=O)O)NC(=O)[C@@H](C)NC(=O)CCc1ccc(O)cc1)[C@@H](C)CC)[C@@H](C)O)[C@@H](C)O)C(C)C)[C@@H](C)CC)C(=O)N[C@@H](CC(=O)O)C(=O)N[C@@H](CCCNC(=N)N)C(=O)N[C@@H](CCCCNC(=N)N)C(N)=O) [P-23254 [Dat^1, D-Ala^2, Thr^8, Orn^12, Abu^15, Orn^21, Nle^27, Asp^28, Har^30]hGHRH(1-30)NH2] | – | – | – | – | – | – | – | – | 70 | 84.5 vs GHRH(1-29)=1 | 27.8
8 | [Desaminotyrosyl][dA]DAIFTASYR[Orn]VL[Abu]QLSAR[Orn]LLQDI[Nle]DR[hArg]-NH2 (SMILES CCCC[C@H](NC(=O)[C@@H](NC(=O)[C@H](CC(=O)O)NC(=O)[C@H](CCC(N)=O)NC(=O)[C@H](CC(C)C)NC(=O)[C@H](CC(C)C)NC(=O)[C@H](CCCN)NC(=O)[C@H](CCCNC(=N)N)NC(=O)[C@H](C)NC(=O)[C@H](CO)NC(=O)[C@H](CC(C)C)NC(=O)[C@H](CCC(N)=O)NC(=O)[C@H](CC)NC(=O)[C@H](CC(C)C)NC(=O)[C@@H](NC(=O)[C@H](CCCN)NC(=O)[C@H](CCCNC(=N)N)NC(=O)[C@H](Cc1ccc(O)cc1)NC(=O)[C@H](CO)NC(=O)[C@H](C)NC(=O)[C@@H](NC(=O)[C@H](Cc1ccccc1)NC(=O)[C@@H](NC(=O)[C@H](C)NC(=O)[C@H](CC(=O)O)NC(=O)[C@@H](C)NC(=O)CCc1ccc(O)cc1)[C@@H](C)CC)[C@@H](C)O)C(C)C)[C@@H](C)CC)C(=O)N[C@@H](CC(=O)O)C(=O)N[C@@H](CCCNC(=N)N)C(=O)N[C@@H](CCCCNC(=N)N)C(N)=O) [P-23256 [Dat^1, D-Ala^2, Ala^8, Orn^12, Abu^15, Orn^21, Nle^27, Asp^28, Har^30]hGHRH(1-30)NH2] | – | – | – | – | – | – | – | – | 40 | 148 vs GHRH(1-29)=1 | 48.7
9 | [Desaminotyrosyl][dA]DAIFTQSYR[Orn]VL[Abu]QLSAR[Orn]LLQDI[Nle]DR[Aoc]-NH2 (SMILES CCCC[C@H](NC(=O)[C@@H](NC(=O)[C@H](CC(=O)O)NC(=O)[C@H](CCC(N)=O)NC(=O)[C@H](CC(C)C)NC(=O)[C@H](CC(C)C)NC(=O)[C@H](CCCN)NC(=O)[C@H](CCCNC(=N)N)NC(=O)[C@H](C)NC(=O)[C@H](CO)NC(=O)[C@H](CC(C)C)NC(=O)[C@H](CCC(N)=O)NC(=O)[C@H](CC)NC(=O)[C@H](CC(C)C)NC(=O)[C@@H](NC(=O)[C@H](CCCN)NC(=O)[C@H](CCCNC(=N)N)NC(=O)[C@H](Cc1ccc(O)cc1)NC(=O)[C@H](CO)NC(=O)[C@H](CCC(N)=O)NC(=O)[C@@H](NC(=O)[C@H](Cc1ccccc1)NC(=O)[C@@H](NC(=O)[C@H](C)NC(=O)[C@H](CC(=O)O)NC(=O)[C@@H](C)NC(=O)CCc1ccc(O)cc1)[C@@H](C)CC)[C@@H](C)O)C(C)C)[C@@H](C)CC)C(=O)N[C@@H](CC(=O)O)C(=O)N[C@@H](CCCNC(=N)N)C(=O)NCCCCCCCC(N)=O) [P-21304 [Dat^1, D-Ala^2, Gln^8, Orn^12, Abu^15, Orn^21, Nle^27, Asp^28, Amc^30]hGHRH(1-30)NH2] | – | – | – | – | – | – | – | – | 80 | 74 vs GHRH(1-29)=1 | 24.4
